In US10088479B2, “Biomarker and uses thereof” (ISIS INNOVATION LIMITED, priority 2014, dated 2018):

B1: FBG: recombinant fibrinogen-like globe domain of human tenascin-C (protein)
chain: GLLYPFPKDCSQAMLNGDTTSGLYTIYLNGDKAEALEVFCDMTSDGGGWIVFLRRKNGRENFYQNWKAYAAGFGDRREEFWLGLDNLNKITAQGQYELRVDLRDHGETAFAVYDKFSVGDAKTRYKLKVEGYSGTAGDSMAYHNGRSFSTFDKDTDSAITNCALSYKGAFWYRNCHRVNLMGRYGDNNHSQGVNWFHWKGHEHSIQFAEMKLRPSNFRNLEGRRKRA
modifications: left off: small tags and cut ends
notes: recombinant fibrinogen-like globe domain of human tenascin-C

How the values were obtained:
[1] = test system: primary human macrophages; experiment: Cytokine synthesis (ELISA) in primary human macrophages stimulated with tenascin-C or its domains; assay type: cell-based; conditions: 24 h
Protocol: Human monocytes were isolated from peripheral blood (London Blood Bank) and macrophages were derived from monocytes after differentiation for 4 days with 100 ng/ml of M-CSF as previously described (Foxwell (1998)).
(§1) Immediately after isolation, RA membrane cells and macrophages were cultured at 1×10^5 cells/well in RPMI 1640 containing 10% (v/v) FBS and 100 U/ml (Units/ml) penicillin/streptomycin in 96-well tissue culture plates for 24 hours before stimulation. Synovial fibroblasts (used only at either passage number 2 or 3) were cultured at 1×10^4 cells/well in DMEM containing 10% (v/v) FBS and 100 U/ml penicillin/streptomycin in 96-well tissue culture plates for 24 hours before stimulation.
Cells were incubated for 24 hours at 37° C. with the indicated doses of tenascin-C and recombinant tenascin-C fragments (1.0 μM-1.0 nM). […]
(§2) Supernatants were subsequently examined for the presence of the cytokines TNF-α, IL-6, and IL-8 by enzyme-linked immunosorbent assay (ELISA) according to the manufacturer's instructions. Absorbance was read on a spectrophotometric ELISA plate reader (Labsystems Multiscan Biochromic, Vantaa, Finland) and analyzed using the Ascent software program (Thermo Labsystems, Altrincham, UK).

RA synovial fibroblasts = experiment: Cytokine synthesis (ELISA) in RA synovial fibroblasts stimulated with tenascin-C, FBG or LPS; assay type: cell-based, human; conditions: 24 h; for cytokine synthesis (IL-6, IL-8) in synovial fibroblasts: LPS 10 ng/ml
Source text: (§3) RA membrane cells (representing a mixed population of all synovial cell types) were to isolated from synovial membranes obtained from patients undergoing joint replacement surgery as previously described (Brennan (1989)). RA synovial fibroblasts were isolated from the mixed population of RA membrane cells as previously described (Brennan (1989)). The study was approved by the local Trust ethics committee (Riverside NHS Research Committee), and waste tissue (synovium after joint replacement surgery) was obtained only after receiving signed informed consent from the patient and anonymyzing the tissue to protect patient identity.
as §1
(§4) Cells were incubated for 24 hours at 37° C. with the indicated doses of tenascin-C and recombinant tenascin-C fragments (1.0 μM-1.0 nM). Cells were also stimulated where indicated with LPS (1 ng/ml for human macrophages, 10 ng/ml for human fibroblasts, RA membrane cells and HEKs, 100 ng/ml for MEFS and BMDMs and 10 ng/ml for HEKS), PAM3 (10 ng/ml for human macrophages, human fibroblasts, and HEKs, 100 ng/ml for MEFs and BMDMs), murine IL-1 (5 ng/ml for MEFS) and murine TNF-α (100 ng/ml for MEFS). Unless specifically stated otherwise rough LPS was used for in vitro studies.
as §2

serum from RA patients = experiment: Western blot of citrullinated tenascin-C probed with serum from RA patients or healthy controls; assay type: binding, human; conditions: sera from RA patients or normal healthy controls
Protocol: 33.33 ul of citrullination reaction (cit-TNC alone or cit-TNC combined with cit-FBG) was loaded into NuPAGE® Novex 4-12% Bis-tris gel using a 1.0 mm 2D single lane well.
After electrophoresis proteins were transferred to nitrocellulose and the membrane blocked and then cut into strips (up to 8 strips ˜0.7 cm wide). Strips were incubated with serum from RA patients or normal healthy individuals diluted 1:100 in 5% milk TBS-tween. Strips were incubated in 15 ml falcon tubes on rollers 1 h room temperature, then washed 3×5 min, 1×15 min in tubes with TBS-Tween. Strips were then incubated with secondary mouse anti-human Ig 1:5000 1 h in room temperature, then washed 3×5 min, 1×15 min in the dish with TBS-tween. Strips were finally incubated with ECL reagents and exposed to film.

[2] = test system: synovial membranes from RA patients; experiment: Cytokine synthesis in RA synovial membrane cells stimulated with FBG; assay type: cell-based, human; conditions: FBG 1.0-0.01 μM, 24 h
Source text: as §3
Immediately after isolation, RA membrane cells and macrophages were cultured at 1×10^5 cells/well in RPMI 1640 containing 10% (v/v) FBS and 100 U/ml (Units/ml) penicillin/streptomycin in 96-well tissue culture plates for 24 hours before stimulation. […]
as §2

knee joint = experiment: Intra-articular injection of FBG into mouse knee joint, histology; assay type: in vivo, mice; conditions: for joint inflammation, histology: wild type mice
Protocol: Wild type mice were anesthetized by intraperitoneal injection of 150 μl of Hypnorm diluted 1:10 in sterile water and then injected with 100 ng, 1 or 3 μg FBG in 10 μl of sterile PBS into the right knee joint using a sterile 33-gauge microcannula. Control mice received an injection of 10 μl PBS alone or were not injected.
On days 3 and 7, mice were euthanized, the knee joints were excised and fixed in 10% (volume/volume) buffered formalin, decalcified, with 10% EDTA and processed to paraffin.
Coronal tissue sections (4 μm) were cut at 7 depths throughout the joint; 80 μm apart and stained with hematoxylin and eosin or Safranin-O to assess joint pathology. Histopathologic changes were scored using the following parameters as described in Van Lent (2006).
Inflammation (the influx of inflammatory cells into synovium (infiltrate) and the joint cavity (exudates), was graded using an arbitrary scale from 0 (no inflammation) to 3 (severe inflammation). Chondrocyte death was determined as the percentage of cartilage area containing empty lacunae in relation to the total area. Cartilage surface erosion was determined as the amount of cartilage lost in relation to the total cartilage area. Bone destruction was determined in 10 different areas of the total knee joint section. Destruction was graded on a scale of 0 (no damage) to 3 (complete loss of bone structure). Histological analysis was performed by an investigator who was blinded to the experimental groups. The mean score for each animal in an experimental group was calculated by averaging the histopathologic scores in at least 5 section depths per joint.

[3] = test system: human dermal fibroblasts (HDF); experiment: Cell adhesion to coated FBG, crystal violet; assay type: cell-based; conditions: coated wells, 45 minutes
Protocol: (§5) (A) The sequence identified to bind integrin αvβ3 is shown in white (Yokoyama et al., 2000). Within this sequence two Arginines (shown in black) were identified to be citrullinated. (B) Wells of a 96 well plate were coated with different concentrations of FBG, citrullinated FBG (cFBG), FBG incubated in buffer without Calcium (FBG —Ca^2+), or FBG incubated without PAD (FBG —PAD). As a positive control wells were coated with Fibronectin (FN) (1 ug/ml), and coating with BSA (10 mg/ml) served as negative control. Plates were incubated with human dermal fibroblasts (HDF) or synovial fibroblasts from RA patients (RAF) for 45 minutes and adhesion was measured by determining absorbance of attached cells after staining with crystal violet (0.1%). Data are shown as the mean of at least four independent experiments+s.e.m., *=p<0.05, **=p<0.01.

[4] = test system: synovial fibroblasts from RA joints (RAF); experiment: Cell adhesion to coated FBG, crystal violet; assay type: cell-based, human; conditions: coated wells, 45 minutes
Protocol: as §5

[5] = test system: embryonic fibroblasts or macrophages; experiment: Cytokine synthesis in embryonic fibroblasts or macrophages from MyD88, TLR2 or TLR4 deficient mice; assay type: cell-based; conditions: FBG 1 μM, 24 h
Protocol: MEFs express high levels of mRNA of all 9 murine TLRs and are specifically and highly responsive to TLR ligand activation. […] MEFs were isolated from d13 embryos harvested from age-matched, pregnant female wild type, TLR2, TLR4 and null mice (as described in Todaro (1963)). Fibroblasts were cultured at 2×10^4 cells/well in DMEM containing 10% (v/v) FBS and 100 U/ml penicillin/streptomycin in 96-well tissue culture plates for 24 hours before stimulation.
BMDMs were derived by aspirating the femurs of age matched female wild type, TLR2 and TLR4 null mice as described in Butler (1999)) and culturing the cells for 7 days in DMEM, 20% (v/v) FBS, 10 ml/L (v/v) antibiotic-antimycotic solution PSA, 50 μM β-Mercaptoethanol and 10 ng/ml M-CSF. Macrophages were then cultured at 1×10^5 cells/well in DMEM, 20% (v/v) FBS, 10 ml/L (v/v) antibiotic-antimycotic solution PSA, 50 μM β-Mercaptoethanol in 96-well tissue culture plates for 24 hours before stimulation.
as §4, §2

Molecule | production of TNF-α, IL-6 and IL-8 ([1]; human macrophages) | TNF-α synthesis in fibroblasts (RA synovial fibroblasts) | cytokine synthesis (IL-6, IL-8) in synovial fibroblasts (RA synovial fibroblasts) | reactivity with sera in blots (serum from RA patients) | TNF-α synthesis in human macrophages ([1]; 1.0 μM tenascin-C domains) | synthesis of IL-6, IL-8 and TNF-α in RA synovial membranes [2] | joint inflammation (knee joint; TLR2 null mice, 1 μg FBG intra-articular, 3 days) | joint inflammation, histology (knee joint; 100 ng FBG intra-articular) | joint inflammation, histology (knee joint; 1 μg FBG intra-articular, 3 days) | joint inflammation, histology (knee joint; 3 μg FBG intra-articular) | adhesion of HDF [3] | adhesion of RAF [4] | cytokine synthesis in MyD88 deficient embryonic fibroblasts ([5]; MyD88 -/-) | cytokine synthesis in TLR2 deficient embryonic fibroblasts or macrophages ([5]; TLR2 -/-) | cytokine synthesis in TLR4 deficient embryonic fibroblasts or macrophages ([5]; TLR4 -/-)
tenascin-C: purified recombinant full-length human tenascin-C, native (non-citrullinated) | dose dependently stimulated | Neither LPS nor tenascin-C induced TNF-α synthesis | only induced IL-6 synthesis | No reactivity | – | – | – | – | – | – | – | – | – | – | –
B1 | – | – | did not induce IL-8 synthesis | – | stimulated | further enhanced synthesis of all these cytokines | able to induce joint inflammation | No inflammation or proteoglycan loss | inflammatory cell infiltration (FIG. 6f), mild synovitis, pannus formation (FIG. 6g) and proteoglycan loss (FIG. 6h) | A similar response | proadhesive | proadhesive | does not stimulate cytokine synthesis | unaffected | does not stimulate cytokine synthesis
